According to patent US20220017636A1 (Amgen, published 2022):

Columns and labels:
Experiment in all cases: flow cytometry, peptide-loaded T2 cells;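 note: binding of single-chain Fv antibody constructs, raised in XenoMouse, to peptide-pulsed T2 cells measured by flow cytometry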
[1] = target: T1, COX14 peptide complexed with HLA-A*02:01 on T2 cells (human)
T1 construct: whole, on cells
Procedure: (§1) Binding of pMAGE-HLA scFv constructs, generated from the XenoMouse, on peptide loaded T2 cells was evaluated by flow cytometry.

[2] = target: T2, CNDP2 peptide complexed with HLA-A*02:01 on T2 cells (human)
T2 construct: whole, on cells; also called CNPD2
Procedure: as §1

[3] = target: T3, ADF peptide complexed with HLA-A*02:01 on T2 cells (human)
T3 construct: whole, on cells
Procedure: as §1

[4] = target: T4, STXBP5 peptide complexed with HLA-A*02:01 on T2 cells (human)
T4 construct: whole, on cells
Procedure: as §1

[5] = target: T5, SLK peptide complexed with HLA-A*02:01 on T2 cells (human)
T5 construct: whole, on cells
Procedure: as §1

[6] = target: T6, KEA peptide complexed with HLA-A*02:01 on T2 cells (human)
T6 construct: whole, on cells
Procedure: as §1

[7] = target: T7, MYOF peptide complexed with HLA-A*02:01 on T2 cells (human)
T7 construct: whole, on cells
Procedure: as §1

[8] = target: T8, MAGEB2 peptide … (SEQ ID NO: 1) complexed with HLA-A*02:01 on the cell surface (human)
T8 construct: whole, on cells; also called pMAGE-HLA; MAGEB2 pMHC
Procedure: as §1

[9] = target: T9, MB peptide complexed with HLA-A*02:01 on T2 cells (human)
T9 construct: whole, on cells
Procedure: as §1

[10] = target: T10, DPYSL4 peptide complexed with HLA-A*02:01 on T2 cells (human)
T10 construct: whole, on cells
Procedure: as §1

Signal/background [1] | Signal/background [2] | Signal/background [3] | Signal/background [4] | Signal/background [5] | Signal/background [6] | Signal/background [7] | Signal/background [8] | Signal/background [9] | Signal/background [10] | Binder
1.2 | 1 | 1.1 | 1.1 | 1.1 | 1.1 | 1.2 | 219 | 1.2 | 1 | 18093-B11 (scFv, scFv in bacterial lysate, detected with anti-Flag M2) scFv: EVQLLESGGGLVKPGGSLRLSCAASGFTFSDYYMSWIRQAPGKGLEWVSYISKSGSTIYYADSVKGRFTISRDNAKNSLYLQMNSLRAEDTAVYYCATYNYGHFDYWGQGTLVTVSSGGGGSGGGGSGGGGSELVLTQPPSVSVAPGQTARITCGGNNIGSKSVHWYQQKPGQAPVLVVYDDSDRPSGIPERFSGSNSGNTATLTISRVEAGDEADYYCQVWDSSSDHHVVFGGGTKLTVL
0.9 | 1 | 1 | 1.1 | 1 | 0.9 | 1.1 | 140 | 1 | 0.9 | 18181-C9 (scFv, scFv in bacterial lysate, detected with anti-Flag M2) scFv: EVQLLESGPGLVKPSQTLSLTCTVSGDSISSNPYYWSWIRQLPGKGLEWIGYISYSGSTFYNPSLKSRVTISVDTSKNQFSLNLTSVTAADTAVYYCARDRLWFGVLNYYYGMDVWGLGTTVTVSSGGGGSGGGGSGGGGSELVLTQSPLSLPVTPGEPASISCRSSQSLLHRNGYNYLDWYLQKPGQSPQLLIYLGSNRASGVPDRFSGSGSGTDFTLKISRVEAEDVGVYYCMQGLQTPFTFGPGTKVEIK
0.9 | 1 | 1 | 0.9 | 1 | 0.9 | 1 | 179 | 0.9 | 1 | 18181-B8 (scFv, scFv in bacterial lysate, detected with anti-Flag M2) scFv: EVQLLESGPGLVKPSQTLSLTCTVSGGSISSGGYYWSWIRQHPGKGLEWIGYISHSGSTYYNPSLKSRVTISVDTSKNQFSLNLTSVTAADTAVYYCAREKMWFGVLNYYYGMDVWGQGTTVTVSSGGGGSGGGGSGGGGSELVMTQTPLSLPVTPGEPASISCRSSQSLLHRNGYNYLDWYLQKPGQSPQLLIYLGSNRASGVPDRFIGSGSGTDFTLEISRVEAEDVGVYYCMQALQTPSFGQGTKVEIK

Continued, binder first:

Binder | Signal/background [1] | Signal/background [2] | Signal/background [3] | Signal/background [4] | Signal/background [5] | Signal/background [6] | Signal/background [7] | Signal/background [8] | Signal/background [9] | Signal/background [10]
18181-G10 (scFv, scFv in bacterial lysate, detected with anti-Flag M2) scFv: EVQLLESGPGLVKPSQTLSLTCTVSGDSISSNPYYWSWIRQLPGKGLEWIGYISYSGSTFYNPSLKSRVTISVDTSKNQFSLNLTSVTAADTAVYYCARDRLWFGVLNYYYGMDVWGLGTTVTVSSGGGGSGGGGSGGGGSELVMTQSPLSLPVTPGEPASISCRSSQSLLHSTGYNYVDWYLQKPGQSPQLLIYLGSNRASGVPDRFSGSGSGTDFTLKISRVEAEDVGFYYCMQALQTPRTFGQGTKVEIK | 1 | 1.1 | 1 | 1 | 1.1 | 1 | 1 | 121 | 1 | 1
18181-E2 (scFv, scFv in bacterial lysate, detected with anti-Flag M2) scFv: EVQLLESGPGLVKPSQTLSLTCTVSGDSISSNPYYWSWIRQHPGKGLEWIGYISHSGSTYYNPSLKSRVTISVDTSKNQFSLNLTSVTAADTAVYYCARDRLWFGVLNYYYGMDVWGLGTTVTVSSGGGGSGGGGSGGGGSELVMTQSPLSLPVTPGEPASISCRSSQSLLHSSGYNYLDWYLQKPGQSPQLLIYLGSNRASGVPDRFSGSGSGTDFTLKISKVEAEDVGVYYCMQALQTPRTFGQGTKVDIK | 1.1 | 1 | 1.1 | 1.1 | 1.1 | 1 | 1.1 | 103 | 1 | 1
18089-B2 (scFv, scFv in bacterial lysate, detected with anti-Flag M2) scFv: EVQLLESGGGLVQPGGSLRLSCAASGFTFSSYAMSWVRQAPGRGLEWVSTISISGGSTNYADSVKGRFTISRDNSKNTLYLQMNSLRAEDTAVYYCAKDGGSGWFPKLLHYGLDVWGQGTTVTVSSGGGGSGGGGSGGGGSELQMTQSPSSLSASVGDRVTITCQASQDISNYLNWYQQKPGKAPKLLIYAASSLQSGVPSRFSGSGSGTDFTLTISSLQPEDFATYYCQQSYSIPLTFGGGTKVEIK | 0.9 | 1 | 1 | 1 | 1.1 | 1 | 1.1 | 318 | 1.1 | 1
18181-G8 (scFv, scFv in bacterial lysate, detected with anti-Flag M2) scFv: EVQLLESGGGLVQPGGSLRLSCAASGFTFSNAWMSWVRQAPGKGLEWVGRIKGNTYGGTTDYAAPVKGRFTISRDDSKNTLFLQMNSLKTEDTAVYYCTTPSNSGSYYNYFSVMDVWGQGTTVTVSSGGGGSGGGGSGGGGSELVMTQSPSSLSASVGDRVTITCRTSQSISSYLNWYQQKPGKAPKLLIYAASSLQSGVPSRFSGSGSGTDFTLTISSLQPEDFATYYCQQTYSMPFTFGGGTKVEIK | 1 | 1 | 1 | 1 | 1 | 0.9 | 1 | 489 | 0.9 | 1.1
